# Target: human FcRn fused to a His-tag and glutathione S transferase (FcRn-His-GST), complex of FcRn heavy chain with beta-2-microglobulin (human) (UniProt P55899)
# Assay: AlphaScreen competition, […] NaCl
row,FcRn Binding Fold-Increase,Substance
1,44,P257L AC10 - IgG1 (antibody)
2,46.1,V308F AC10 - IgG1 (antibody)

# Target: human FcRn fused to a His-tag and glutathione S transferase (FcRn-His-GST), complex of FcRn heavy chain with beta-2-microglobulin (human) (UniProt P55899)
# Assay: AlphaScreen competition, 25 mM NaCl
row,Medan Fold Increase,Substance
1,0.89,^281D (antibody)
2,2.13,^281S/V308F (antibody)

# Further lines, the substance ahead of its results:
row,Substance,Medan Fold Increase
1,^281S/V308Y (antibody),1.46
2,^281T (antibody),0.56

# — patent publication US20090041770A1
